Experimental data published in the Immune Epitope Database (IEDB).
Blank lines part the entries; values can stand above or below the sequence they belong to.

Assays:
HLA-C*01:02 = assay: IEDB peptide-MHC binding, purified MHC/direct/fluorescence; filed as Kd, often an IC50 or EC50 that approximates it; ≥ and ≤ were set here for values at or beyond the usual limits of such assays; conditions: source organism: Homo sapiens
HLA-A*24:02 [1] = assay: IEDB peptide-MHC binding, cellular MHC/competitive/fluorescence; ≥ and ≤ were set here for values at or beyond the usual limits of such assays; conditions: source organism: Human herpesvirus 5 strain AD169
HLA-B*15:02 = assay: IEDB peptide-MHC binding, purified MHC/competitive/fluorescence; filed as Kd, often an IC50 or EC50 that approximates it; ≥ and ≤ were set here for values at or beyond the usual limits of such assays; conditions: source organism: Rickettsia felis URRWXCal2
HLA-B*83:01 = assay: as above; conditions: source organism: Rickettsia felis URRWXCal2
HLA-C*14:02 = assay: as above; conditions: source organism: Rickettsia felis URRWXCal2
HLA-B*45:06 = assay: as above; conditions: source organism: Rickettsia felis URRWXCal2
HLA-B*27:20 = assay: as above; conditions: source organism: Rickettsia felis URRWXCal2
HLA-C*06:02 = assay: as above; conditions: source organism: Rickettsia felis URRWXCal2
HLA-B*15:42 = assay: as above; conditions: source organism: Rickettsia felis URRWXCal2
HLA-A*32:15 = assay: as above; conditions: source organism: Rickettsia felis URRWXCal2
HLA-A*32:07 = assay: as above; conditions: source organism: Rickettsia felis URRWXCal2
HLA-B*46:01 = assay: as above; conditions: source organism: Rickettsia felis URRWXCal2
HLA-B*40:13 = assay: as above; conditions: source organism: Rickettsia felis URRWXCal2
HLA-A*30:01 = assay: as above; conditions: source organism: Human immunodeficiency virus 1
HLA-A*01:01 [2] = assay: as above; conditions: source organism: Human immunodeficiency virus 1
HLA-B*15:17 = assay: as above; conditions: source organism: Human immunodeficiency virus 1
HLA-B*08:01 [3] = assay: as above; conditions: source organism: Human immunodeficiency virus 1
HLA-A*26:01 = assay: as above; conditions: source organism: Human immunodeficiency virus 1
HLA-B*38:01 = assay: as above; conditions: source organism: Human immunodeficiency virus 1
HLA-B*57:01 = assay: as above; conditions: source organism: Human immunodeficiency virus 1
HLA-B*15:09 = assay: as above; conditions: source organism: Human immunodeficiency virus 1
HLA-A*80:01 = assay: IEDB peptide-MHC binding, purified MHC/direct/fluorescence; filed as Kd, often an IC50 or EC50 that approximates it; ≥ and ≤ were set here for values at or beyond the usual limits of such assays; conditions: source organism: Human immunodeficiency virus 1
HLA-A*11:01 = assay: IEDB peptide-MHC binding, purified MHC/competitive/fluorescence; ≥ and ≤ were set here for values at or beyond the usual limits of such assays; conditions: source organism: Homo sapiens
HLA-A*29:02 = assay: as above; conditions: source organism: Homo sapiens
HLA-A*01:01 [4] = assay: as above; conditions: source organism: Homo sapiens
HLA-B*14:02 = assay: as above; conditions: source organism: Homo sapiens
HLA-B*08:01 [5] = assay: as above; conditions: source organism: Homo sapiens
HLA-B*58:01 = assay: as above; conditions: source organism: Homo sapiens
HLA-B*18:01 = assay: as above; conditions: source organism: Homo sapiens
HLA-A*25:01 = assay: as above; conditions: source organism: Homo sapiens
HLA-A*02:01 = assay: as above; conditions: source organism: Homo sapiens
HLA-A*68:02 = assay: as above; conditions: source organism: Homo sapiens
HLA-B*44:03 = assay: as above; conditions: source organism: Homo sapiens
HLA-A*24:02 [6] = assay: as above; conditions: source organism: Homo sapiens
HLA-A*03:01 = assay: as above; conditions: source organism: Homo sapiens
HLA-A*31:01 = assay: as above; conditions: source organism: Homo sapiens
HLA-B*53:01 = assay: as above; conditions: source organism: Homo sapiens
HLA-B*35:01 = assay: as above; conditions: source organism: Homo sapiens
HLA-B*51:01 = assay: as above; conditions: source organism: Homo sapiens
HLA-B*40:02 = assay: as above; conditions: source organism: Homo sapiens
HLA-B*07:02 = assay: as above; conditions: source organism: Homo sapiens
HLA-B*37:01 = assay: as above; conditions: source organism: Homo sapiens
HLA-A*01:01 [7] = assay: IEDB peptide-MHC binding, purified MHC/competitive/radioactivity; ≥ and ≤ were set here for values at or beyond the usual limits of such assays; conditions: source organism: Human papillomavirus 16

Kd (HLA-C*01:02): 3.9 nM
Sequence: ELHDHGVSSL

Sequence: FFFDIDLLL
IC50 (HLA-A*24:02 [1]): ≥ 333000 nM

Sequence: FMYALSRAF
Kd (HLA-B*15:02): 2.2 nM
Kd (HLA-B*83:01): ≥ 5000 nM
Kd (HLA-C*14:02): ≤ 0.1 nM
Kd (HLA-B*45:06): ≥ 5000 nM
Kd (HLA-B*27:20): ≤ 0.1 nM
Kd (HLA-C*06:02): 64.5 nM
Kd (HLA-B*15:42): ≥ 5000 nM
Kd (HLA-A*32:15): 27.7 nM
Kd (HLA-A*32:07): 493 nM
Kd (HLA-B*46:01): 6.6 nM
Kd (HLA-B*40:13): 4.5 nM

Sequence: GTEEIRSLF
Kd (HLA-A*30:01): 11000 nM
Kd (HLA-A*01:01 [2]): ≥ 20000 nM
Kd (HLA-B*15:17): 223 nM
Kd (HLA-B*08:01 [3]): ≥ 20000 nM
Kd (HLA-A*26:01): ≥ 20000 nM
Kd (HLA-B*38:01): ≥ 20000 nM
Kd (HLA-B*57:01): 347 nM
Kd (HLA-B*15:09): ≥ 20000 nM
Kd (HLA-A*80:01): ≥ 20000 nM

IC50 (HLA-A*11:01): ≥ 20000 nM
IC50 (HLA-A*29:02): ≥ 20000 nM
IC50 (HLA-A*01:01 [4]): ≥ 20000 nM
IC50 (HLA-B*14:02): ≥ 20000 nM
IC50 (HLA-B*08:01 [5]): ≥ 20000 nM
IC50 (HLA-B*58:01): ≥ 20000 nM
IC50 (HLA-B*18:01): ≥ 20000 nM
IC50 (HLA-A*25:01): ≥ 20000 nM
IC50 (HLA-A*02:01): ≥ 20000 nM
IC50 (HLA-A*68:02): ≥ 20000 nM
IC50 (HLA-B*44:03): ≥ 20000 nM
IC50 (HLA-A*24:02 [6]): 1110 nM
IC50 (HLA-A*03:01): ≥ 20000 nM
IC50 (HLA-A*31:01): ≥ 20000 nM
IC50 (HLA-B*53:01): 851 nM
IC50 (HLA-B*35:01): 47.7 nM
IC50 (HLA-B*51:01): ≥ 20000 nM
IC50 (HLA-B*40:02): ≥ 20000 nM
IC50 (HLA-B*07:02): 562 nM
IC50 (HLA-B*37:01): ≥ 20000 nM
Sequence: LPSCPTNFCIF

Sequence: QVDYYGLYY
IC50 (HLA-A*01:01 [7]): 18 nM
